Data set [1] concerns the molecule itself. The data set can be described thus: SDS-PAGE and MALDI-TOF MS of purified VAPs (self-assembly).
Data set [2] concerns the molecule itself. The data set can be described thus: heterologous expression in E. coli and electron microscopy of thin sections (self-assembly).

B1: P98 protein of Sulfolobus islandicus rod-shaped virus 2 (SIRV2) (other)
chain: MAITLLEGALYGFFAVTGILVGSFVVGEIVHLYNEKQNNENFAKAVDQMSKSTVIAVESIKDTTTTAINALLNMDTLRDVNALAREKAKDQNPNTQAK
notes: Assayed as assembled VAPs (homomultimeric pyramids) from SIRV2-infected S. islandicus; Also used here for P98 expressed from pSVA1059 in S. acidocaldarius, for which no tag is stated; The number of monomers per VAP was not measured; also called SIRV2-P98; protein 98
With B1, the binding result in data set [1] is on record as “binds”.

B2: recombinant C-terminal his-tagged P98 expressed in E. coli Rosetta(DE3)pLys from pSVA1051 (other)
chain: MAITLLEGALYGFFAVTGILVGSFVVGEIVHLYNEKQNNENFAKAVDQMSKSTVIAVESIKDTTTTAINALLNMDTLRDVNALAREKAKDQNPNTQAK
notes: Found primarily in the E. coli membrane fraction, where it forms closed VAPs on the inner membrane; also called recombinant P98; E. coli 1051 expressing SIRV2-ORF98; not shown: C-terminal his tag
Regarding B2, the binding result in data set [2] is reported as “binds”.

These data come from EP2479185A1 (INSTITUT PASTEUR, dated 2012).
